According to patent US20260167714A1 (COHERUS BIOSCIENCES, published 2026):
Changes are numbered by the printed parent chain. Numbers in names are those of the source.

B1: Hz45.01-LALA (antibody, human IgG1, kappa, L234A L235A, V domains shown)
VH: QVQLVQSGAEVKKPGASVKVSCKASGYTFTDYYMNWVRQAPGQRLEWIGDINPNNGGTSYNQKFKGRATITVDTSASTAYMELSSLRSEDTAVYYCARGGAELTGTYWYFDVWGQGTTVTVSS
VL: DIQMTQSPSSLSASVGDRVTITCRASENIYSNLAWYQQKPGKAPKVLVYGATNLADGVPSRFSGSGSGTEYTLTISSLQPEDFATYYCQHFWDSPFTFGGGTKVEIKR
notes: Humanized L45S4, human IgG1 L234A/L235A, kappa; also called Humanized 45_01; Hu IgG 45_01 LALA
B2: Hz156.03-LALA (antibody, human IgG1, kappa, L234A L235A, V domains shown)
VH: QVQLVQSGAEVKKPGSSVKVSCKASGYTFTDYYMNWVRQAPGQGLEWIARIYPGVYRTHYNEKFKDRVTLTADKSTSTAYMELSSLRSEDTAVYYCARSGYYGGTYEEDAMDYWGQGTTVTVSS
VL: B1 VL with V46L, G50A, N53S, E70D, H90N, S94T, F96Y, G100Q
notes: Humanized L156S3, human IgG1 L234A/L235A, kappa

Key:
[1] = molecular target: T1, recombinant human ILT4 (LILRB2) (human, UniProt Q8N423 22-460); assay: KinExA, solution equilibrium, n-curve analysis
T1 construct: Bought protein (Acro Biosystems or R&D Systems); also called ILTR4
Experimental: Kinetic Exclusion Assay (KinExA®) was performed to measure the equilibrium binding affinity and kinetics between human ILT4 and four humanized LALA-Fc modified antibodies in solution. For affinity analysis, the equilibrium dissociation constant, KD, was experimentally determined and reflects the strength of the binding interaction. The rate of association, kₒₙ, was also experimentally determined, while the rate of dissociation, koff, is calculated based on the following equation: koff=KD×kₒₙ
The binding affinity (KD), association (kₒₙ), and dissociation rate constants (koff) were measured for 4 different Humanized LALA IgG antibodies to ILT4 using KinExA. An n-curve analysis of at least two different curves, run at two different CBP concentrations, was used to determine the KD of the interactions The ILT4 was used as the concentration reference for all curves. All of the binding systems have low error and well defined 95% confidence intervals giving confidence to the measurements: […]

[2] = molecular target: T1, recombinant human ILT4 (LILRB2); assay: SPR, high resolution kinetics, triplicate, LALA antibody
LILRA1 = molecular target: T2, LILRA1 (human, UniProt O75019 17-461); assay: SPR, Biacore 8K, mAb captured on anti-human Fc, analyte injected
T2 construct: Bought protein; limits of the extracellular domain are marked by bold type not visible here; whole entry named; also called recombinant human LILRA1
Experimental: (§1) SPR was used to determine the specificity of four humanized anti-ILT4 mAbs for binding to LILRB2 and to determine any cross-reactivity with nine other LILRA and LILRB family members. LILR proteins were purchased from Acro Biosystems or R&D Systems, with sequence provided below. The studies were performed with a Biacore 8K instrument using a CM4 sensor chip with a running buffer of HBS-P+, 100 μg/mL BSA. Anti-human Fc specific capture surfaces were prepared using standard amine coupling chemistry. MAb was captured to flow cell 2 with flow cell 1 serving as the reference flow cell. Each of the nine family members and LILRB2 were injected at 100 nM at 30 μL/min for 90 sec with 240 sec of dissociation. […] All sensorgrams were doubled-referenced during processing of the data.

LILRA2 = molecular target: T3, LILRA2 (human, UniProt Q8N149 24-449); assay: as above
T3 construct: Bought protein; limits of the extracellular domain are marked by bold type not visible here; whole entry named; also called recombinant human LILRA2
Experimental: as §1

LILRA3 = molecular target: T4, LILRA3 (human, UniProt Q8N6C8 24-439); assay: as above
T4 construct: Bought protein; limits of the part used are marked by bold type not visible here; whole entry named; also called recombinant human LILRA3
Experimental: as §1

LILRA4 = molecular target: T5, LILRA4 (human, UniProt P59901 24-446); assay: as above
T5 construct: Bought protein; limits of the extracellular domain are marked by bold type not visible here; whole entry named; also called recombinant human LILRA4
Experimental: as §1

LILRA5 = molecular target: T6, LILRA5 (human, UniProt A6NI73 42-268); assay: as above
T6 construct: Bought protein; limits of the extracellular domain are marked by bold type not visible here; whole entry named; also called recombinant human LILRA5
Experimental: as §1

LILRA6 = molecular target: T7, LILRA6 (human, UniProt Q6PI73 24-447); assay: as above
T7 construct: Bought protein; limits of the extracellular domain are marked by bold type not visible here; whole entry named; also called recombinant human LILRA6
Experimental: as §1

LILRB1 = molecular target: T8, LILRB1 (human, UniProt Q8NHL6 24-461); assay: as above
T8 construct: Bought protein; limits of the extracellular domain are marked by bold type not visible here; whole entry named; also called recombinant human LILRB1; ILT2
Experimental: as §1

LILRB3 = molecular target: T9, LILRB3 (human, UniProt O75022 24-443); assay: as above
T9 construct: Bought protein; limits of the extracellular domain are marked by bold type not visible here; whole entry named; also called recombinant human LILRB3; ILT5
Experimental: as §1

LILRB4 = molecular target: T10, LILRB4 (human, UniProt Q8NHJ6 22-259); assay: as above
T10 construct: Bought protein; limits of the extracellular domain are marked by bold type not visible here; whole entry named; also called recombinant human LILRB4; ILT3
Experimental: as §1

[3] = molecular target: T1, recombinant human ILT4 (LILRB2); assay: SPR, Biacore T200, mAb captured on anti-Fc, ILT4 injected, medium resolution, 25 C
Method in brief: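 Mouse, chimeric or humanized mAbs captured on anti-Fc surfaces (CM4 chip); ILT4 injected at 101 to 0.79 nM, 2-fold series, 90 s association, 1200 s dissociation. Run at 25° C in HBS-P+ pH 7.4 with 100 μg/ml BSA; double-referenced global 1:1 fit with mass-transport term, KD=koff/kon.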

[4] = molecular target: T11, human ILT4 expressed on cells (human, UniProt Q8N423 22-597); assay: flow cytometry, blockade of PE-HLA-G tetramer binding to ILT4-CHO cells, Experiment 3
T11 construct: whole, on cells; The same entry is used for endogenous ILT4 of human macrophages; also called CHO-S/ILT4 cells; ILT4-CHO cells

[5] = molecular target: T11, human ILT4 expressed on cells; assay: flow cytometry, blockade of PE-HLA-A tetramer (5 ug/ml) binding to ILT4-CHO cells, Experiment 2 (table title prints HLA-G)

T1 sequence (Q8N423 other isoform, or with tags, fused parts or gaps limits assumed): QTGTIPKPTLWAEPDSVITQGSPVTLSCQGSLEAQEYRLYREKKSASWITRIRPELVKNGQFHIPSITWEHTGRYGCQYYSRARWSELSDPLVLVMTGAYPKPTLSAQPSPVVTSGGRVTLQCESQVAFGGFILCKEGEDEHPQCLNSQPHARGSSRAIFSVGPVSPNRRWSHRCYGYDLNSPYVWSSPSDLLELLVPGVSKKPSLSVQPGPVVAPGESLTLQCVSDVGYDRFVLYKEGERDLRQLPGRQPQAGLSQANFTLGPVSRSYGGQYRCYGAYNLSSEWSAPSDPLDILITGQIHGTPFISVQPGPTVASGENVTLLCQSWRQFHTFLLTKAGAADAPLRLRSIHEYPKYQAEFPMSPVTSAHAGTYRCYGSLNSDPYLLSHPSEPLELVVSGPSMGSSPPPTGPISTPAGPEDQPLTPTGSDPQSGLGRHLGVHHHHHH
T11 sequence (Q8N423 22-597): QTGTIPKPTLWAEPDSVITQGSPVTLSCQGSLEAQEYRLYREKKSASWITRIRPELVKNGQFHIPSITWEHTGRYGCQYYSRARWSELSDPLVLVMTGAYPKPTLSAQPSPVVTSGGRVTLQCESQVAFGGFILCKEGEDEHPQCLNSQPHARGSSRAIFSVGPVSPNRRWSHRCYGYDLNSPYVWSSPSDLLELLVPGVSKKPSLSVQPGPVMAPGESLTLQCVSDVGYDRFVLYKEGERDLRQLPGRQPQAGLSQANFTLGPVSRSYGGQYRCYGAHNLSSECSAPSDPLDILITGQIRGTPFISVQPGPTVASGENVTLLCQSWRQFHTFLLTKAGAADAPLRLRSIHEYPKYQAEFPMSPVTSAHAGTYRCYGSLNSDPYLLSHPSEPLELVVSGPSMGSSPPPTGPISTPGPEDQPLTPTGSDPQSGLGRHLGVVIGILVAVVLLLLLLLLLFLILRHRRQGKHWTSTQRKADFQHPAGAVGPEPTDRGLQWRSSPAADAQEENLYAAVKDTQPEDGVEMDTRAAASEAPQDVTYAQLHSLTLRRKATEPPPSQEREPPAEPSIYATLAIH
T6 sequence (A6NI73 other isoform, or with tags, fused parts or gaps): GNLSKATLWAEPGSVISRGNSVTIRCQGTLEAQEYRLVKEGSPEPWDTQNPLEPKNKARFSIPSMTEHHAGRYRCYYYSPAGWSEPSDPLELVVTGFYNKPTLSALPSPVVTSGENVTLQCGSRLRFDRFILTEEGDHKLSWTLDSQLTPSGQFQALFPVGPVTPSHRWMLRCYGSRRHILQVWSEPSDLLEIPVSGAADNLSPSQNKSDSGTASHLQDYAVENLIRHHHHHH
T8 sequence (Q8NHL6 other isoform, or with tags, fused parts or gaps): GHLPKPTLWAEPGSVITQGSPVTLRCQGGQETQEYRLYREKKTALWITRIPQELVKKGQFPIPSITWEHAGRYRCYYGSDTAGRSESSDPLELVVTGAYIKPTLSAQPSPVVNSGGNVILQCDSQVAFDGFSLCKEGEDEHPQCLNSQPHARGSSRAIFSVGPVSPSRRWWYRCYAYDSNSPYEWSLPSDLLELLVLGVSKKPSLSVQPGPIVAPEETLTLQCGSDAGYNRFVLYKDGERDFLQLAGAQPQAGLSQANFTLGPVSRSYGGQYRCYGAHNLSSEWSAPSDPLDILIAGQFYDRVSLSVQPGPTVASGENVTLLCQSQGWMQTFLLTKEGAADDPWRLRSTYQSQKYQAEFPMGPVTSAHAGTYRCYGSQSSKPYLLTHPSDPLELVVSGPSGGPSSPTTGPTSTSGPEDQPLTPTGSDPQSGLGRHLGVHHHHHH
T2 sequence (O75019 other isoform, or with tags, fused parts or gaps): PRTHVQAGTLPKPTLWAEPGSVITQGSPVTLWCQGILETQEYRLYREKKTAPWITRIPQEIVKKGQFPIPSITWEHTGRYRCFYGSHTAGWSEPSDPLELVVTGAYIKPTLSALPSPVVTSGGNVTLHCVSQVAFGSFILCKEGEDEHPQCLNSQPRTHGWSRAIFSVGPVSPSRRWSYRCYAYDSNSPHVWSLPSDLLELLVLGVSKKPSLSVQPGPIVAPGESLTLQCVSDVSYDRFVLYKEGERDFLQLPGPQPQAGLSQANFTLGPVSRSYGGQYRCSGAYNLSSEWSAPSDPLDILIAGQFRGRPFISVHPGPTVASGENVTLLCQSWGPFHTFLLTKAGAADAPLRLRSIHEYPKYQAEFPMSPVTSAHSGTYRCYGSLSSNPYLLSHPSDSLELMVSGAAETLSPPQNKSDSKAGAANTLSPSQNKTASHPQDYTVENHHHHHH
T4 sequence (Q8N6C8 24-439 A105V limits assumed): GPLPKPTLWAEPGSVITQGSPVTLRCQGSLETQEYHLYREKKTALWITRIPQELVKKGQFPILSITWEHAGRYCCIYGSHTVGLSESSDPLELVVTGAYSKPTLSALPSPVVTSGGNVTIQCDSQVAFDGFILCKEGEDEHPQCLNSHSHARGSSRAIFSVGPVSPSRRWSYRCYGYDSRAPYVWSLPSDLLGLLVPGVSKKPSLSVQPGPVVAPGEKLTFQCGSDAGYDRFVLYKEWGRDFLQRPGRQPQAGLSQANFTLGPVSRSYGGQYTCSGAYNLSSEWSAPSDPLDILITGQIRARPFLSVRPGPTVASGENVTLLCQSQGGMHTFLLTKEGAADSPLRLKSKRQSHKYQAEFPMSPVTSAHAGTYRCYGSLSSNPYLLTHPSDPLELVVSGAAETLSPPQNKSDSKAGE
T7 sequence (Q6PI73 other isoform, or with tags, fused parts or gaps): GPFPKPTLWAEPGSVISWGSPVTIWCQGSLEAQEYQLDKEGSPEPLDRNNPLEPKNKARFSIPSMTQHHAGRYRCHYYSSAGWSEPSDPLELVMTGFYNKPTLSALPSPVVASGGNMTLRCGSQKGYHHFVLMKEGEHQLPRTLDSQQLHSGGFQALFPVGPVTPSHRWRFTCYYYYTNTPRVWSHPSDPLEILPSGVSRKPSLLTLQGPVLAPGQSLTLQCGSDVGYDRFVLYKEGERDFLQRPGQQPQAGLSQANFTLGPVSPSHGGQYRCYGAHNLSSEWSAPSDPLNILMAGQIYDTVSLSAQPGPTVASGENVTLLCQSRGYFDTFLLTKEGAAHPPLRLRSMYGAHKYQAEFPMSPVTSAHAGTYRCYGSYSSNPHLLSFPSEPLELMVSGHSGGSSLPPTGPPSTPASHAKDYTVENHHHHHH
T9 sequence (O75022 other isoform, or with tags, fused parts or gaps): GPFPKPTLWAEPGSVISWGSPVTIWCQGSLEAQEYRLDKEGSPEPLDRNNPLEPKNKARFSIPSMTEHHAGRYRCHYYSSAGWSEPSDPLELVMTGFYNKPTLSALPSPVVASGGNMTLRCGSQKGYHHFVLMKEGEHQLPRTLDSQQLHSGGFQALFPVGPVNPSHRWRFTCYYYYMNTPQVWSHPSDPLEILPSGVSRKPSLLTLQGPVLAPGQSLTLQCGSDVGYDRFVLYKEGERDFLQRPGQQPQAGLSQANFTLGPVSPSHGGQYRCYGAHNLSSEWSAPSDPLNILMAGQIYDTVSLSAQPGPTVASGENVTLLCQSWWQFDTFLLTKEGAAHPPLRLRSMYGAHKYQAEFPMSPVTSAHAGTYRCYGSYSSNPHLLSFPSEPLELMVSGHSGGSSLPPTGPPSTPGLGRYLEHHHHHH
T3 sequence (Q8N149 other isoform, or with tags, fused parts or gaps): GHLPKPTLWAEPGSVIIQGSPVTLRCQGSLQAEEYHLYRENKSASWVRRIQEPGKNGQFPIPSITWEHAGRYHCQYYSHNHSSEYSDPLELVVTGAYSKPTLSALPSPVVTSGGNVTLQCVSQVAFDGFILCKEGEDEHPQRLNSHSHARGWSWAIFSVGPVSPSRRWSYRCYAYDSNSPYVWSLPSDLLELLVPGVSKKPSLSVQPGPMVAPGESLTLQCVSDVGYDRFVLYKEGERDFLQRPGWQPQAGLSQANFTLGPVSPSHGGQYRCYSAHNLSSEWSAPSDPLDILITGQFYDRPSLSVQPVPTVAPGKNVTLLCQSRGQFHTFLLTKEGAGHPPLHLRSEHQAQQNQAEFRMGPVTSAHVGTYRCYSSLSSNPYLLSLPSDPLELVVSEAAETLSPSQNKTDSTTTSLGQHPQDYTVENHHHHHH
T10 sequence (Q8NHJ6 other isoform, or with tags, fused parts or gaps): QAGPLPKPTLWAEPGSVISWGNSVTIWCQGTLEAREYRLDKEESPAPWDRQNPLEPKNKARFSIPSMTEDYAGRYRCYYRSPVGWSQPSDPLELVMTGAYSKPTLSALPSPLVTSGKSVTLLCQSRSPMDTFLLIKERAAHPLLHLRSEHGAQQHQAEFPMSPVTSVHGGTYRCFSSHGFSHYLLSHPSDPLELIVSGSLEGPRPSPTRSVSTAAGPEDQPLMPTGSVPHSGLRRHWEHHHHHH
T5 sequence (P59901 other isoform, or with tags, fused parts or gaps): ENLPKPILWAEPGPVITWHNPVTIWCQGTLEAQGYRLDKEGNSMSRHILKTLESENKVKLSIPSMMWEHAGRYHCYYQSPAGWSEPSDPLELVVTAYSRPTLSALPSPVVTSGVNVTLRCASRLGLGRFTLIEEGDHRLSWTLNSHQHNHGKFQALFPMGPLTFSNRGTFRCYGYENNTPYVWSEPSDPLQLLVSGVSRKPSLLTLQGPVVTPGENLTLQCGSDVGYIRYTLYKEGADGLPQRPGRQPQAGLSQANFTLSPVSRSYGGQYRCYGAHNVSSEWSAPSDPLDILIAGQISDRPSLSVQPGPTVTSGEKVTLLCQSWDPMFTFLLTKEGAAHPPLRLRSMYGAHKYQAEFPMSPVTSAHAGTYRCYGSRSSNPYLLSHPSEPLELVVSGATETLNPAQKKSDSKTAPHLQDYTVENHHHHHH

| Binder | Kd [1] [nM] | Kd [2] [nM] | koff [2] [s⁻¹] | binding result (LILRA1) | binding result (LILRA2) | binding result (LILRA3) | binding result (LILRA4) | binding result (LILRA5) | binding result (LILRA6) | binding result (LILRB1) | binding result (LILRB3) | binding result (LILRB4) | Kd [3] [nM] | koff [3] [s⁻¹] | kon [3] [M⁻¹ s⁻¹] | IC50 [4] [µg/mL] | IC50 [5] [µg/mL] |
| --- | --- | --- | --- | --- | --- | --- | --- | --- | --- | --- | --- | --- | --- | --- | --- | --- | --- |
| B1 | 0.0851 | 0.154 | 0.000531 | no binding (tested: 100 nM) | no binding (tested: 100 nM) | no binding (tested: 100 nM) | no binding (tested: 100 nM) | no binding (tested: 100 nM) | no binding (tested: 100 nM) | no binding (tested: 100 nM) | no binding (tested: 100 nM) | no binding (tested: 100 nM) | 1.27 | 0.000418 | 330000 | 0.185 | 0.122 |
| B2 | 0.00916 | 0.0057 | 1.83e-05 | no binding (tested: 100 nM) | no binding (tested: 100 nM) | no binding (tested: 100 nM) | no binding (tested: 100 nM) | no binding (tested: 100 nM) | no binding (tested: 100 nM) | no binding (tested: 100 nM) | no binding (tested: 100 nM) | no binding (tested: 100 nM) | – | – | 497000 | 0.233 | 0.152 |
